This is an account of results in patent US7884189B2, “Carboxyltransferase domain of acetyl-CoA carboxylase” (The Trustees of Columbia University in the City of new York, priority 2003, dated 2011).

Where two headings read alike, the source gives them in different places.

Data set [1] can be described thus: Kinetic parameters of wild-type and mutant yeast CT (reverse reaction, malonyl-CoA to biotin methyl ester). It counts as biochemical, S. cerevisiae. The conditions noted are these: 2.5 μM of the enzyme. The source says:
(§1) Enzyme kinetic assays. The CT domain can catalyze the decarboxylation of malonyl-CoA to produce acetyl-CoA in the presence of biotin methyl ester. The kinetic assays monitored the production of acetyl-CoA by coupling it to citrate synthase and malate dehydronase, which ultimately lead to the reduction of NAD^+ (Guchhait et al., 1974, J. Biol. Chem. […]). Mutations in the active site were designed based on the structural information. The mutants were made with the QuikChange kit (Stratagene) and sequenced for confirmation. They were purified and assayed kinetically under the same condition as the wild-type protein. The kinetic parameters for each enzyme were obtained by non-linear least-squares fitting to the initial velocity data.
To characterize the functional roles of the conserved residues in the active site, many of them were mutated and the kinetic parameters of the mutants for the reverse reaction, which transfers the carboxyl group of malonyl-CoA to biotin (Table D) were determined. […] Based on the structures of the invention, it is likely that this residue is important for recognizing the carboxyl group of malonyl-CoA, and this is also consistent with the hypothesis that the biotin substrate may be mostly associated with the C domain. Of the charged side chains that interact with the phosphate groups of CoA, mutation of Arg1731 gave rise to a 14-fold increase in the Km for malonyl-CoA (Table D), consistent with the structural observations. On the other hand, mutation of Arg2036 had minimal effects on the enzyme catalysis.
Mutagenesis and kinetic assays. The L1705I and V1967I single-site mutants as well as the L1705I/V1967I double mutant were made with the QuikChange kit (Stratagene), from the expression construct that covers residues 1476-2233. The mutants were sequenced, expressed in E. coli, and purified following the same protocol as that for thewild-type CT domain. The catalytic activity of the CT domain was assayed following protocols described earlier (Guchhait, R. B. et al. (1974) Acetyl coenzyme A carboxylase system from Escherichia coli. Purification and properties of the biotin carboxylase, carboxyltransferase, and carboxyl carrier protein components. J Biol Chem 249, 6633-6645; Zhang et al., 2003). […] The concentration of the malonyl-CoA substrate was kept close to the expected Km, 75 μM for the wild-type enzyme and 750 μM for the mutants. The wild-type enzyme was at 2.5 μM concentration, whereas the mutants were at 20 μM concentration.

In the next data set the target is T1, CT domain of yeast ACC (Saccharomyces cerevisiae, UniProt Q00955).
T1 construct: made in house; host or cells: E. coli (pET24d)
T1 sequence (Q00955 1429-2233): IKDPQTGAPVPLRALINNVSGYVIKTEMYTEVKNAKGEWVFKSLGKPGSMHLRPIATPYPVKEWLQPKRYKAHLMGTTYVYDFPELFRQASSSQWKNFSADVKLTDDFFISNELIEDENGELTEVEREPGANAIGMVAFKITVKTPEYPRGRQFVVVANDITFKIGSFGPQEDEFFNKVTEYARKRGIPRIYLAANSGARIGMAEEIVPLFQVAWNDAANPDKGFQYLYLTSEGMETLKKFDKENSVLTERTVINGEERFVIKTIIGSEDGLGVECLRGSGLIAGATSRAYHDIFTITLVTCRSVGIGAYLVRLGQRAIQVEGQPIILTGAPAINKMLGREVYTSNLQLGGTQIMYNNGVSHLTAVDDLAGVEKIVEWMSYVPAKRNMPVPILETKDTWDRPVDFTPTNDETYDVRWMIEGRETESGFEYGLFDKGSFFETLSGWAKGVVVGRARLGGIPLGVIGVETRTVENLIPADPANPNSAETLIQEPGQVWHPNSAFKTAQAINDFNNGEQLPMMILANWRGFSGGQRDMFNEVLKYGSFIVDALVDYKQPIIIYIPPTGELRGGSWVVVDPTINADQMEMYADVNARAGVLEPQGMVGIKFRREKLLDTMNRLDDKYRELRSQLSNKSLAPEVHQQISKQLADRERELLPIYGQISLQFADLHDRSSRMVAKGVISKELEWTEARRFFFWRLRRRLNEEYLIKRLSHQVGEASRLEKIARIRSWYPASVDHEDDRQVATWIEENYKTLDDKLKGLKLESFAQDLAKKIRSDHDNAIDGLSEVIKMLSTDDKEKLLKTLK
Nature of the data set: CT domain enzyme kinetic assay, inhibition (decarboxylation of malonyl-CoA coupled to citrate synthase and malate dehydrogenase). The format is biochemical, S. cerevisiae.

Data set [2] concerns the target T2, L1705I, V1967I and L1705I/V1967I mutants of the yeast CT domain (Saccharomyces cerevisiae, UniProt Q00955).
T2 construct: fused on or other part: C-terminal His-tag (pET24d)
Nature of the data set: CT domain enzyme kinetic assay, inhibition of mutant CT domains. The format is biochemical, S. cerevisiae. The note with it: single and double mutants; malonyl-CoA 750 μM, mutants at 20 μM.
Source text: as §1
Mutagenesis and kinetic assays. The L1705I and V1967I single-site mutants as well as the L1705I/V1967I double mutant were made with the QuikChange kit (Stratagene), from the expression construct that covers residues 1476-2233. The mutants were sequenced, expressed in E. coli, and purified following the same protocol as that for thewild-type CT domain. […]

The subject of the next data set is ACC. The note with it: cited from earlier work.
Another data set has as its system mammalian ACC2. The conditions noted are these: cited from earlier work.
Data set [3] concerns the molecule itself. As to the kind of experiment: light scattering in solution (homodimer).

T2 sequence (Q00955 whole entry L1705I/V1967I, form open, the tested form may be a part): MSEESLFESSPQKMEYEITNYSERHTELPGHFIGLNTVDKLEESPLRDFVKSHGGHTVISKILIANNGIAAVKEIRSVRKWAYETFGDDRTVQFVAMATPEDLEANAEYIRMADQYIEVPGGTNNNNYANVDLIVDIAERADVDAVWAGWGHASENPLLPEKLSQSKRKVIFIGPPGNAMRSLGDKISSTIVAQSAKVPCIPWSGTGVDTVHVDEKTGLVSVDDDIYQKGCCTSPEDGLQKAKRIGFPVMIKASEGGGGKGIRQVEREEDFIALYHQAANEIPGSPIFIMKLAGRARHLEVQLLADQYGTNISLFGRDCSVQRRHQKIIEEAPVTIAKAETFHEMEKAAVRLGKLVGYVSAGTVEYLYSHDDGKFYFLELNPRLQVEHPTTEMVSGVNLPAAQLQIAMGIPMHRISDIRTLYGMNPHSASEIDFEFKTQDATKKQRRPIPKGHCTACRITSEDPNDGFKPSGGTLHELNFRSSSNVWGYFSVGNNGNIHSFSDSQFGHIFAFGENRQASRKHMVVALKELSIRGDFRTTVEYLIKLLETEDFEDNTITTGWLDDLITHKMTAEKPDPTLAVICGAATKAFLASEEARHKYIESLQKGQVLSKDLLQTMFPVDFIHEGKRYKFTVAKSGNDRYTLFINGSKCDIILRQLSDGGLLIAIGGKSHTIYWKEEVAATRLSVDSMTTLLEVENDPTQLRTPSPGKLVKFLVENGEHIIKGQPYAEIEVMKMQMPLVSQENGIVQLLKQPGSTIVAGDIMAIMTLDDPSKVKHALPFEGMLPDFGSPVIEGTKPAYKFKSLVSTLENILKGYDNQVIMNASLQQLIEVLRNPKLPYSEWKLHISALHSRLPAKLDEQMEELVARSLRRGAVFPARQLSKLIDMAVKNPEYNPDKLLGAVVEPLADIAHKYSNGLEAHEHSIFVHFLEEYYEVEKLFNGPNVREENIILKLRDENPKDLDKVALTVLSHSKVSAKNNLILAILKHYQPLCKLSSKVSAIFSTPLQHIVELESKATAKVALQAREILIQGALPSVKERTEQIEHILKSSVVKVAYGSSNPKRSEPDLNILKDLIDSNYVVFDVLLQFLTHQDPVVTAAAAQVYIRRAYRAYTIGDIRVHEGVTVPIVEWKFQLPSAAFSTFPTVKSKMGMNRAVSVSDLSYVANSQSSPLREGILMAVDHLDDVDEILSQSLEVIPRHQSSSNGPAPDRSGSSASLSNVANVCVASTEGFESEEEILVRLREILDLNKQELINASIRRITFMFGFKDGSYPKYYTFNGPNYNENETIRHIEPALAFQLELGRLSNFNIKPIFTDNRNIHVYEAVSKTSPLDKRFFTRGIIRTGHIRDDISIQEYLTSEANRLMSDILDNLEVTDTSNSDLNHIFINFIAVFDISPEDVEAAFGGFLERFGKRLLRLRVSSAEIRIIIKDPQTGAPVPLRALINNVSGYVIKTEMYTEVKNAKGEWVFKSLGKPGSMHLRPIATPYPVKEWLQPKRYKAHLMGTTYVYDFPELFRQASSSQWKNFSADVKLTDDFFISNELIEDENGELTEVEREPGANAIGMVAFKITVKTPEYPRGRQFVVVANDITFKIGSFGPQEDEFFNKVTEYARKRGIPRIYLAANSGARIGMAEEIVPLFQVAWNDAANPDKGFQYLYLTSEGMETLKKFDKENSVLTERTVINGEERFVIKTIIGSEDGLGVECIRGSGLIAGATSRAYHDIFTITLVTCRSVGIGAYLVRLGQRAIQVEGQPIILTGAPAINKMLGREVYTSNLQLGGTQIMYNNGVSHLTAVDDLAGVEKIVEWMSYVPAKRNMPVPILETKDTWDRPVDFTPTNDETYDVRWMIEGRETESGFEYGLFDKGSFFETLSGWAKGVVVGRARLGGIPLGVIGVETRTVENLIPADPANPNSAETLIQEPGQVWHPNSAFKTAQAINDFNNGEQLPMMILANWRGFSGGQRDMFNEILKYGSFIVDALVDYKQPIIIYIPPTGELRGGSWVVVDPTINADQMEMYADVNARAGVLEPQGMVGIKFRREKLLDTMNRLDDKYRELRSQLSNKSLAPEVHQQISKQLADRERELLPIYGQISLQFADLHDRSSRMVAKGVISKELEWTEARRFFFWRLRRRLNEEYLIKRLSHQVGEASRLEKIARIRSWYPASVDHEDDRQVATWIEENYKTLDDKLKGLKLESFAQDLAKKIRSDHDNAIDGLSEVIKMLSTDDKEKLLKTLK
Source text for CT domain of yeast ACC: The CT domain can catalyze the decarboxylation of malonyl-CoA to produce acetyl-CoA in the presence of biotin methyl ester. Thus, the enzyme kinetic assays monitor the production of acetyl-CoA by coupling it to citrate synthase and malate dehydrogenase, which ultimately lead to the reduction of NAD^+.
Enzyme kinetic assays. The CT domain can catalyze the decarboxylation of malonyl-CoA to produce acetyl-CoA in the presence of biotin methyl ester. The kinetic assays monitored the production of acetyl-CoA by coupling it to citrate synthase and malate dehydronase, which ultimately lead to the reduction of NAD^+ (Guchhait et al., 1974, J. Biol. Chem. 9:6633-6645).

What is called Km is the substrate concentration at which the rate is half of its maximum. As to R1954S, in data set [1], the Km worked out at 5100 ± 1200 µM and the Vmax is 39 ± 6 ×10^−5 AU/s. In the same order, the values of E2026Q are 218 ± 24 µM and 144 ± 6 ×10^−5 AU/s. For the molecule E1994Q, in data set [1], the Km came out at 109 ± 5 µM and the Vmax is 272 ± 3 ×10^−5 AU/s. Broadly, the Ki is the equilibrium dissociation constant of an inhibitor or competing ligand from its target. As to `CC(Oc1ccc(Oc2ncc(C(F)(F)F)cc2Cl)cc1)C(=O)O` (stereo not drawn) [haloxyfop], the Ki (at CT domain of yeast ACC; in data set [2]) was about 500 µM in each case.

With `CC(Oc1ccc(Oc2ncc(C(F)(F)F)cc2Cl)cc1)C(=O)SCCNC(=O)CCNC(=O)C(O)C(C)(C)COP(=O)(O)OP(=O)(O)OCC1OC(n2cnc3c(N)ncnc32)C(O)C1OP(=O)(O)O` (stereo not drawn) [CoA ester of haloxyfop], in the data set on ACC, the “potency relative to haloxyfop” value is given as “more potent inhibitor”. Consider Y1738F, for which, in data set [1], the Km stood at 53 ± 6 µM and the Vmax is recorded as 152 ± 3 ×10^−5 AU/s. As for R2036E, in data set [1], the Km came to 41 ± 4 µM and the Vmax is on record as 133 ± 3 ×10^−5 AU/s.

As usually defined, the IC50 is the midpoint of a concentration-inhibition curve. As for `O=C(c1c2ccccc2cc2ccccc12)N1CCC(N2CCC[C@@H](C(=O)N3CCOCC3)C2)CC1` [CP-640186], the Ki at CT domain of yeast ACC (versus malonyl-CoA, about 3 μM of enzyme in the reaction buffer, read-out: Ki) was about 4 µM. Also, the mode of inhibition result at CT domain of yeast ACC (with respect to malonyl-CoA) was “non-competitive”. Besides, in the data set on mammalian ACC2, the half-inhibitory concentration (IC50) is about 0.055 µM. Take R1731S: in data set [1], the Michaelis-Menten constant (Km) was 909 ± 72 µM and the Vmax was 385 ± 10 ×10^−5 AU/s.

B1: L1705I/V1967I double mutant of the yeast CT domain (residues 1476-2233) (enzyme)
chain: GSMHLRPIATPYPVKEWLQPKRYKAHLMGTTYVYDFPELFRQASSSQWKNFSADVKLTDDFFISNELIEDENGELTEVEREPGANAIGMVAFKITVKTPEYPRGRQFVVVANDITFKIGSFGPQEDEFFNKVTEYARKRGIPRIYLAANSGARIGMAEEIVPLFQVAWNDAANPDKGFQYLYLTSEGMETLKKFDKENSVLTERTVINGEERFVIKTIIGSEDGLGVECIRGSGLIAGATSRAYHDIFTITLVTCRSVGIGAYLVRLGQRAIQVEGQPIILTGAPAINKMLGREVYTSNLQLGGTQIMYNNGVSHLTAVDDLAGVEKIVEWMSYVPAKRNMPVPILETKDTWDRPVDFTPTNDETYDVRWMIEGRETESGFEYGLFDKGSFFETLSGWAKGVVVGRARLGGIPLGVIGVETRTVENLIPADPANPNSAETLIQEPGQVWHPNSAFKTAQAINDFNNGEQLPMMILANWRGFSGGQRDMFNEILKYGSFIVDALVDYKQPIIIYIPPTGELRGGSWVVVDPTINADQMEMYADVNARAGVLEPQGMVGIKFRREKLLDTMNRLDDKYRELRSQLSNKSLAPEVHQQISKQLADRERELLPIYGQISLQFADLHDRSSRMVAKGVISKELEWTEARRFFFWRLRRRLNEEYLIKRLSHQVGEASRLEKIARIRSWYPASVDHEDDRQVATWIEENYKTLDDKLKGLKLESFAQDLAKKIRSDHDNAIDGLSEVIKMLSTDDKEKLLKTLK
notes: also called mutated yeast CT domain; mutant CT domain; not shown: C-terminal His-tag of the parent pET24d construct
For B1, in data set [3], the binding result was “binds”.

B2: L1705I (protein)
chain: GSMHLRPIATPYPVKEWLQPKRYKAHLMGTTYVYDFPELFRQASSSQWKNFSADVKLTDDFFISNELIEDENGELTEVEREPGANAIGMVAFKITVKTPEYPRGRQFVVVANDITFKIGSFGPQEDEFFNKVTEYARKRGIPRIYLAANSGARIGMAEEIVPLFQVAWNDAANPDKGFQYLYLTSEGMETLKKFDKENSVLTERTVINGEERFVIKTIIGSEDGLGVECIRGSGLIAGATSRAYHDIFTITLVTCRSVGIGAYLVRLGQRAIQVEGQPIILTGAPAINKMLGREVYTSNLQLGGTQIMYNNGVSHLTAVDDLAGVEKIVEWMSYVPAKRNMPVPILETKDTWDRPVDFTPTNDETYDVRWMIEGRETESGFEYGLFDKGSFFETLSGWAKGVVVGRARLGGIPLGVIGVETRTVENLIPADPANPNSAETLIQEPGQVWHPNSAFKTAQAINDFNNGEQLPMMILANWRGFSGGQRDMFNEVLKYGSFIVDALVDYKQPIIIYIPPTGELRGGSWVVVDPTINADQMEMYADVNARAGVLEPQGMVGIKFRREKLLDTMNRLDDKYRELRSQLSNKSLAPEVHQQISKQLADRERELLPIYGQISLQFADLHDRSSRMVAKGVISKELEWTEARRFFFWRLRRRLNEEYLIKRLSHQVGEASRLEKIARIRSWYPASVDHEDDRQVATWIEENYKTLDDKLKGLKLESFAQDLAKKIRSDHDNAIDGLSEVIKMLSTDDKEKLLKTLK
modifications: left off: small tags and cut ends
As for B2, in data set [1], the Michaelis-Menten constant (Km) turned out to be 1340 ± 180 µM and the Vmax is 12 ± 0.3 ×10^−5 AU/s.
